B1: monoclonal antibody (mAb) 4C5 (antibody, V domains shown)
VL: ELVMTQSPSSMYASLGERVTITCKASQDINSYLSWFQQKPGKSPKTLIYRANRLVDGVPSRFSGSGSGQDYSLTINSLEYEDMGIYYCLQYDEFPRLTFGAGTRLELKR
B2: recombinant 4C5 (antibody, V domains shown)
VL: ELVMTQSPSSMYASLGERVTITCKASQDINSYLSWFQQKPGKSPKTLIYRANRLVDGVPSRFSGSGSGQDYSLTINSLEYEDMGIYYCLQYDEFPRLTFGAGTRLELKR
B3: human-mouse chimeric 4C5 antibody (antibody, V domains shown)
VL: ELVMTQSPSSMYASLGERVTITCKASQDINSYLSWFQQKPGKSPKTLIYRANRLVDGVPSRFSGSGSGQDYSLTINSLEYEDMGIYYCLQYDEFPRLTFGAGTRLELKR

Each binder was assayed against surface HSP90 on MDAMB453 breast cancer cells (human, UniProt P07900 2-732) (assay: cell-based or functional assay).

In order of rising “inhibition of wound closure, MDAMB453 in vitro wound healing assay, 200 µg/ml, 48 hours” value:
1. B2  46.5%
2. B3  51.2%
3. B1  55.3%
